Measured values published in the nanobody polyreactivity screen of Harvey et al. (2022).

Assay: yeast display, Sf9 membrane polyspecificity reagent, FACS + sequencing; frameworks hold sequencing errors
Summary of the method: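 Galactose induction of a Saccharomyces cerevisiae BJ5465 synthetic nanobody display library ran 36–48 hours. The cells were then stained for 1 hour at 4 °C with 10% biotinylated, detergent-solubilized Sf9 membrane reagent, pulled down on streptavidin microbeads and FACS-sorted into low and high (top ~1%) gates on expression and reagent-binding fluorescence. Labels for polyreactivity follow the gate of origin.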

Sequence | polyreactivity (PSR sort gate)
QVQLVESGGGLVQAGGTLRLSCAASGGIFGGYAMGWYRQAPGTEGELVAVITSGGSTYYADSVKGRFTISRDNAKNTVYLQMNSLKPEDTAVYYCAADGHSYSYSTYDYWGQGTQVTVSS | low polyreactivity
QVQLVESGGGLVQAGGTLRLSCAASGIIFGVYAMGWYRQAPGKERELVAAIDGNGSSTYYADSVKGRFTISRDTAKNTVYLQMNSLKPEDTAVYYCPAGYWSYLYYWYDFDYWGQGTQVTVSS | low polyreactivity
QVQLVESGGGLVQAGGTLRLSCAASGITFDYNAMGWYRQAPGKERELVATISDTGSTNYADSVKGRFTISRDNAKNTVYLQMNSLKPEDTAVYYCAADGLGDYHPKWEYQEYDYWGQGTQVTVSS | low polyreactivity
QVQLVESGGGLVQAGGTLRLSCAASGITFTGNDMGWYRQAPGKERELVAAISNRGGSTYYADSVKGRFTISRDNAKNTVYLQMNSLKPEDTAVYYCRTSTPRRVSGNYWGQGTQVTVSS | high polyreactivity
QVQLVESGGGLVQAGGTLRLSCAASGLISYFYGMGWYRQAPGKERELVAGIDTGSSTNYADSVKGRFTISRDNAKNTVYLQMNSLKPEDTAVYYCAADSVSKYGSDYWGQGTQVTVSS | low polyreactivity
QVQLVESGGGLVQAGGTLRLSCAASGLTFGYNAMVWYRQAPRKERELVATISYSGGRTYYADSVKGRFTISRDTAKNTVYLQMNSLKPEDTAVYSCAARRASGPYGFGYWGQGTQVTVSS | high polyreactivity
QVQLVESGGGLVQAGGTLRLSCAASGLTFKSYDMGWYRHAPGKERELVAAITSGVSTHYADSVKGRFTISRDNAKNTVYLQMNSLKPEDTAVYYCAADYSWYDPYWIMDYWGQGTQVTVSS | low polyreactivity
QVQLVESGGGLVQAGGTLRLSCAASGNTFRYYAMGWYRQSPGKERELVARITGRAGSTYYADSVKGRFTISRDNAKKTVYLQMNSLKPEDTAVYYCAAEFYYGFDYWGQGTQVTVSS | high polyreactivity
QVQLVESGGGLVQAGGTLRLSCAASGRIFPAYVMGWYRQAPGKERELVATIDNGGGTYYADSVKGRFTISRDNAKNTVYLQMNSLKPEDTAVYYCARDRHVRWGLKMDYWGQGTQVTVSS | low polyreactivity
QVQLVESGGGLVQAGGTLRLSCAASGRIFPRNVLGWYRQAPGKEWELVAAISSRGTRTYYADSVKGRFTISRDNAKNTVYLQMNSLKPEDTPVYYCAADGPYEGYDDWGQGTQVTVSS | high polyreactivity
QVQLVESGGGLVQAGGTLRLSCAASGRTFSGYAMGWYRQAPGKERELVAAIDRGDGTNYADSVKGRFTISRDNAKNTVYLQMNSLKPEDTAVYYCAADYSYGSTSHTYTGFDYWGQGTQVTVSS | low polyreactivity
QVQLVESGGGLVQAGGTLRLSCAASGSIFGKNAMGWYRQARGKERELVAAITWSGGSTYYADSVKGRFTISRDNAKNTVSLQINSLKPEDTAVYYCNAVRVRVTSHRIRQLDYGYWGQGTQVTVSS | low polyreactivity
QVQLVESGGGLVQAGGTLRLSCAASGSIFRGNGMGWYRQAPGKERELVAAISRSGGRTYYADSVKGRFTFSRDNAKNTVYLQMNSLKPEDTAVYYCAAVPPYNYRFRVYYWGQGSQVTVSS | high polyreactivity
QVQLVESGGGLVQAGGTLRLSCAASGSIFRYYAMGWYRQAPGKERELVATITSTGGSTYYADSVKGRFTISRDNAKNTVYLQMNSLKPEDTAVYYCAARNKLYVTVRGYYLSGYWGQGTQVTVSS | high polyreactivity
QVQLVESGGGLVQAGGTLRLSCAASGSIFRYYTMGWYRQAPGKERELVAAITWDGDSTYYADSVKGRFTISLDNAKNTVYLQMNSLKPEDTAVYYCNADDYGPGFDYWGQGTQVTVSS | low polyreactivity
QVQLVESGGGLVQAGGTLRLSCAASGSILGGNAMGWYRQAPGKERELVAAITFSGGGTYYADSVKGRFTISRDNAKNTVYLQMNSLKPEDTAVYYCAADKDGYTYEFDYWGQGTQVTVSS | low polyreactivity
QVQLVESGGGLVQAGGTLRLSCAASGSILTPNAMGWSRQAPGKERELVAAISDNAGSTYYADSVKGRFTISRDNAKNTVYLQMNSLKPEDTAVYYCAAEYWEYNLVYLVYYYSMDYWGQGTQVTVSS | high polyreactivity
QVQLVESGGGLVQAGGTLRLSCAASGSIVQSYAMGWYRQAPGKERELVAAITERGGSTYYADSVKGRFTISRDNAKNTVYLQMNSLKPEDTAVYYCAAKAVGLGKSWRGDDYWGQGTQVTVSS | low polyreactivity
QVQLVESGGGLVQAGGTLRLSCAASGSTFAANAMGWYRQAPGKERELVAAITSSGGSTYYADSVKGRFTISRDNAKNTVYLQMNSLKPEDTAVYYCNTDIERYVRIYDSWGQGTQVTVSS | low polyreactivity
QVQLVESGGGLVQAGGTLRLSCAASGSTFGVYAMGWYRQAPGKERELVAAIDNSGDDTYYADSVKGRFTISRDNAKNTVYLQMNSLKPEDTAVYYCAADFWDGRSTLNFWGQGTQVTVSS | high polyreactivity
QVQLVESGGGLVQAGGTLRLSCAASGSTFVDYAMGWYRQAPGKERELVAGINGSGGSTYYADSVKGRFTISRDNAKNTVYLQMNSLKPEDTAVYYCAKDGSNRLALPAWDYNYWGQGTQVTVSS | low polyreactivity

Sequence | polyreactivity (PSR sort gate)
QVQLVESGGGLVQAGGTLRLSCAASGSTISYYTMGWYRQAPGKERELVAAISRSGTRTYYADSVKGRFTISRDNPKNTVYLQMNSLKPEDTAFFYCAARSPFYSYTPGYEYWGQGTQVTVSS | high polyreactivity
QVQLVESGGGLVQAGGTLRLSCAASGSTQWGYDMGWYRQATGKERELVAAISSSGSNTRYADSVKGRFTISRDNEKNTVYLQLNRLKPEDTAVYYCTARTYLRGKTDYGYDSWGQGTHVTVSS | high polyreactivity
QVQLVESGGGLVQAGGTLRLSCAASGSTYEVYAMGWYRQAPGTERELVAVITGNGGSTNYADSVKGRFTISRDNAKNTVYLQMNSLKPEDTAVYYCAADFYTFVRSDYWGQGTQVTVSS | low polyreactivity
QVQLVESGGGLVQAGGTLRLSCAASGYTFPLYAMGWYRQAPVKERELVADINIGGASTYYADSVKGRFTISRDNATNTVYLQMNSLKPEDTAVYDCAKEYYDGYFPTFDYDYFGQGTQVTVSS | low polyreactivity
QVQLVESGGGLVQAGGTLRLSCDASGFIFPGYAKGWSRNATGKQREFVAAISRSGGSTYYADSVKGRFTISRDNAKNTVYLQMNSLKPEDTAVYYCATRARGYTGYDYWGQGTQVTVSS | high polyreactivity
QVQLVESGGGLVQAGGTLRLSGAASGFIFPQYAMGWYRQAPGKERELVAAISTGGGSTYYADSVKGRFTISRDNAKNTVYLQMNSLKPEDTAVYYCNARPKYDSGHYYWGQGTQVTVSS | high polyreactivity
QVQLVESGGGLVQAGGTLRLSGAASGRTLRRYAMGWYRQAPGKARELVATISGRGGSTYYADSVKGRFTISRDNAKNTVYLQMNSLKPEDTAVYYCAADSVLSKYDYWGQGTQVTVSS | high polyreactivity
QVQLVESGGGLVQAGGTLSLSCAATGRNLSYAMGWYRQAPGKERELVAAMNWSGGTTYYADSVKGRFTISRDNAKNTVYLQMNSLKQEDTAVYYCAARVRGTGYNSWGQGTQLTVSS | high polyreactivity
QVQLVESGGGLVQAGRILRLSCAASGIILGRYAMGWYRQAHGKERELVAAITASGGRTYYADSVKGRFTISRDNAKNTVYLQMNSLKPEDTAVYYCNTVYWGYKSHYDYWGQGTQVTVSS | high polyreactivity
QVQLVESGGGLVQAGRSHRLSCAASGFTFFDNAMGWYRQAPGKERELVAAITWSDGSTYYADSVKGRFTISRDNAKNTVYLQMNSLKPEDTAVYYCNKRGWWDLRHDYWGQGTHVTVSS | low polyreactivity
QVQLVESGGGLVQAGRSLRLICAASGRISVFYTMGWYRQAPGKERELVAVIRTSGGRTNYADSVKGRFTISRDNAKNTVYLQMNSLKPEDTAVYYCAARVVRYGFKYYYWGQGTQVTVSS | low polyreactivity
QVQLVESGGGLVQAGRSLRLICAASGSTFPSYAMGWYRQAPGNERELVAAINSGGGTNYADAVKGRFTISRDNAKNTVYLQMNSLKPEDTAVFYCAKSRYDYTKTEGGYWGQATQVTVSS | low polyreactivity
QVQLVESGGGLVQAGRSLRLICAASGSTFYVNAMGWYRQAPGKEREFVAAIRWPGGSTYYADSVKWRFTISRDNAKNTFYVQMNSLKPEDTAVFYCAARIKYRYVWGQGTQVTVSS | low polyreactivity
QVQLVESGGGLVQAGRSLRLNCAASGLTFYKYAMGWYRQAPGKERELVAAISYRGGSTYYADSVKGRFTISRDNAKNTVSLQLNSLKPEVTAVYYCAAGYPYGGDYWGQGTQVTVSS | high polyreactivity
QVQLVESGGGLVQAGRSLRLSCAASGFIFGHNAMGWSRQAPGKERELFAAIRSRGGSTYYADSVKGRFTISRDNAKNTVYLQMNSLKREDTAVYYCAADGAVVSSSRKFVYWGQGTQVTVSS | low polyreactivity
QVQLVESGGGLVQAGRSLRLSCAASGFTFAYYAMGWYRQAPGKERELVAAISRGGTSTYYADSVKGRFTISRDNAKNTVYLQMNSLKPEDTAVYYCNAVKVGYSLYDYWGQGTQVTVSS | high polyreactivity
QVQLVESGGGLVQAGRSLRLSCAASGFTFQSYDMGWYRQAPGKDRELVAAISWSGASTYYADSVKGRFTISRDNAKNTVYLQMNSLKPEDTAVYYCAAGEPTWWGYANDYWGQGTQVTVST | high polyreactivity
QVQLVESGGGLVQAGRSLRLSCAASGGLFQKYPMGWYRHAPGKERELVAAISGSGGRTYYADSVKGRFTISRDNAKNTVYLQMNTLKPEDTEVYYCAATLNRYGYDYWGQGTQVTVST | high polyreactivity
QVQLVESGGGLVQAGRSLRLSCAASGLTFLAYDMGWYRQAPGKVRQLVAAITGGGSTHYADSVKGRFTISRDNAKNTVYLQMTSLKPDDTAVSYCNADVYVYSVTSHYPSYRLDYWGHGTQVTVSS | high polyreactivity
QVQLVESGGGLVQAGRSLRLSCAASGRIFADYAMGWYRQAPGKERQLVAAITSGGTTYADSVKGRFTISRDNAKNTVYLQMNSLKPEDSAVYYCAAQGQGRTGGFGKGSTYGYWGQGTQVTVSS | low polyreactivity
